tested on: Escherichia coli TOP10; test: shrunken log2 fold change of peptide-encoding DNA abundance (4.5 h post-induction vs induction); higher = less antimicrobial activity (less host growth inhibition); details: time post-induction: 4.5 h; library: site-saturation at positions 5, 18, 19, 20
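Note: peptides expressed intracellularly from a pBAD plasmid library in pooled LB shake-flask culture, induced with 0.3% L-arabinose, DNA abundance read by NGS, three biological replicates, DESeq2 with apeglm shrinkage.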

Compared with RRIRTRPPRLPRPRPRPVTSPRP, RRIRDRPPRLPRPRPRPEADPRP is higher in “shrunken log2 fold change” value: -0.0276 for the first, 1.93 for the second.

First: RRIRFRPPRLPRPRPRPQDYPRP
Second: RRIRYRPPRLPRPRPRPQGQPRP
The “shrunken log2 fold change” value of the first is higher: 0.0577 for the first, -0.262 for the second.

First: RRIRHRPPRLPRPRPRPSASPRP
Second: RRIRFRPPRLPRPRPRPECSPRP
The “shrunken log2 fold change” value of the first is lower: -0.0379 for the first, 0.411 for the second.

Compared with RRIRPRPPRLPRPRPRPCSKPRP, RRIRVRPPRLPRPRPRPISHPRP is lower in “shrunken log2 fold change” value: 0.0051 for the first, -0.326 for the second.

Going from RRIRKRPPRLPRPRPRPEMEPRP to RRIRPRPPRLPRPRPRPMVYPRP, the “shrunken log2 fold change” value falls from 3.59 to -0.228.

Compared with RRIRPRPPRLPRPRPRPAQWPRP, RRIRHRPPRLPRPRPRPFAWPRP is lower in “shrunken log2 fold change” value: 0.384 for the first, -0.186 for the second.

Compared with RRIRARPPRLPRPRPRPRTKPRP, RRIRSRPPRLPRPRPRPNGVPRP is lower in “shrunken log2 fold change” value: 0.565 for the first, -0.00885 for the second.

Going from RRIRYRPPRLPRPRPRPSVMPRP to RRIRLRPPRLPRPRPRPVINPRP, the “shrunken log2 fold change” value falls from -0.194 to -0.686.

RRIRDRPPRLPRPRPRPQGRPRP and RRIRVRPPRLPRPRPRPCKCPRP are within 0.2 log units of each other in “shrunken log2 fold change” value: -0.0642 for the first, -0.239 for the second.

Compared with RRIRIRPPRLPRPRPRPWCKPRP, RRIRQRPPRLPRPRPRPDLFPRP is higher in “shrunken log2 fold change” value: -0.284 for the first, -0.0321 for the second.

Going from RRIRIRPPRLPRPRPRPVIPPRP to RRIRCRPPRLPRPRPRPSFYPRP, the “shrunken log2 fold change” value falls from -0.358 to -0.793.

RRIRARPPRLPRPRPRPWHPPRP and RRIRKRPPRLPRPRPRPISNPRP are within 0.2 log units of each other in “shrunken log2 fold change” value: -0.00894 for the first, 0.153 for the second.

Going from RRIRGRPPRLPRPRPRPMCGPRP to RRIRVRPPRLPRPRPRPHYWPRP, the “shrunken log2 fold change” value falls from 0.645 to -0.336.

RRIRARPPRLPRPRPRPSIRPRP and RRIRQRPPRLPRPRPRPGIDPRP are within 0.2 log units of each other in “shrunken log2 fold change” value: -0.0712 for the first, 0.0179 for the second.

Compared with RRIRKRPPRLPRPRPRPPDTPRP, RRIRARPPRLPRPRPRPKGIPRP is lower in “shrunken log2 fold change” value: 0.896 for the first, -0.0515 for the second.

Going from RRIRFRPPRLPRPRPRPFITPRP to RRIRCRPPRLPRPRPRPNLCPRP, the “shrunken log2 fold change” value rises from -0.918 to -0.427.

RRIRARPPRLPRPRPRPIQAPRP and RRIRWRPPRLPRPRPRPYRRPRP are within 0.2 log units of each other in “shrunken log2 fold change” value: -0.0205 for the first, -0.0183 for the second.

First: RRIRKRPPRLPRPRPRPWTPPRP
Second: RRIRFRPPRLPRPRPRPPFIPRP
The “shrunken log2 fold change” value of the first is higher: 0.246 for the first, -0.236 for the second.

Compared with RRIRLRPPRLPRPRPRPEYIPRP, RRIRTRPPRLPRPRPRPVCGPRP is higher in “shrunken log2 fold change” value: -0.312 for the first, 0.179 for the second.

RRIRGRPPRLPRPRPRPFHWPRP and RRIRNRPPRLPRPRPRPYNRPRP are within 0.2 log units of each other in “shrunken log2 fold change” value: 0.134 for the first, 0.00748 for the second.

First: RRIRDRPPRLPRPRPRPFLWPRP
Second: RRIRMRPPRLPRPRPRPQCIPRP
The “shrunken log2 fold change” value of the first is higher: 0.625 for the first, 0.0157 for the second.

RRIRHRPPRLPRPRPRPCRVPRP and RRIRTRPPRLPRPRPRPMGVPRP are within 0.2 log units of each other in “shrunken log2 fold change” value: -0.242 for the first, -0.174 for the second.

RRIRLRPPRLPRPRPRPCYQPRP and RRIRIRPPRLPRPRPRPFHDPRP are within 0.2 log units of each other in “shrunken log2 fold change” value: -0.476 for the first, -0.374 for the second.

Going from RRIRARPPRLPRPRPRPVKQPRP to RRIRARPPRLPRPRPRPPHVPRP, the “shrunken log2 fold change” value rises from -0.0614 to 0.805.

RRIRFRPPRLPRPRPRPEWWPRP and RRIRTRPPRLPRPRPRPGQIPRP are within 0.2 log units of each other in “shrunken log2 fold change” value: 0.0105 for the first, 0.0034 for the second.

RRIRCRPPRLPRPRPRPFRCPRP and RRIRSRPPRLPRPRPRPHQMPRP are within 0.2 log units of each other in “shrunken log2 fold change” value: -0.0165 for the first, -0.207 for the second.

RRIRKRPPRLPRPRPRPNHKPRP and RRIRDRPPRLPRPRPRPSMDPRP are within 0.2 log units of each other in “shrunken log2 fold change” value: -0.203 for the first, -0.0183 for the second.

RRIRKRPPRLPRPRPRPQMKPRP and RRIRYRPPRLPRPRPRPQCFPRP are within 0.2 log units of each other in “shrunken log2 fold change” value: -0.0666 for the first, -0.00674 for the second.

First: RRIRRRPPRLPRPRPRPNHHPRP
Second: RRIRCRPPRLPRPRPRPEGMPRP
The “shrunken log2 fold change” value of the first is lower: -0.25 for the first, 0.422 for the second.

Going from RRIRGRPPRLPRPRPRPNFEPRP to RRIRKRPPRLPRPRPRPHAAPRP, the “shrunken log2 fold change” value falls from 1.87 to -0.0457.

RRIRTRPPRLPRPRPRPMTYPRP and RRIRLRPPRLPRPRPRPHGVPRP are within 0.2 log units of each other in “shrunken log2 fold change” value: -0.0748 for the first, -0.0127 for the second.

Compared with RRIRERPPRLPRPRPRPDYLPRP, RRIRVRPPRLPRPRPRPFDIPRP is higher in “shrunken log2 fold change” value: -0.612 for the first, 0.145 for the second.

First: RRIRQRPPRLPRPRPRPFADPRP
Second: RRIRCRPPRLPRPRPRPYAMPRP
The “shrunken log2 fold change” value of the first is higher: -0.0142 for the first, -0.436 for the second.

First: RRIRPRPPRLPRPRPRPMPGPRP
Second: RRIRHRPPRLPRPRPRPSCEPRP
The “shrunken log2 fold change” value of the first is higher: -0.0627 for the first, -0.569 for the second.

RRIRVRPPRLPRPRPRPTFMPRP and RRIRDRPPRLPRPRPRPVLQPRP are within 0.2 log units of each other in “shrunken log2 fold change” value: -0.0669 for the first, 0.0891 for the second.

Compared with RRIRSRPPRLPRPRPRPAENPRP, RRIRGRPPRLPRPRPRPLRQPRP is higher in “shrunken log2 fold change” value: 0.151 for the first, 0.62 for the second.

Going from RRIRARPPRLPRPRPRPISAPRP to RRIRFRPPRLPRPRPRPIRQPRP, the “shrunken log2 fold change” value falls from 0.294 to -0.297.

RRIRERPPRLPRPRPRPFTEPRP and RRIRVRPPRLPRPRPRPVSTPRP are within 0.2 log units of each other in “shrunken log2 fold change” value: -0.184 for the first, -0.145 for the second.

RRIRPRPPRLPRPRPRPNYWPRP and RRIRARPPRLPRPRPRPRYLPRP are within 0.2 log units of each other in “shrunken log2 fold change” value: -0.234 for the first, -0.351 for the second.

RRIRDRPPRLPRPRPRPYSAPRP and RRIRYRPPRLPRPRPRPHACPRP are within 0.2 log units of each other in “shrunken log2 fold change” value: -0.0545 for the first, 0.0039 for the second.

Going from RRIRERPPRLPRPRPRPFNIPRP to RRIRNRPPRLPRPRPRPHLAPRP, the “shrunken log2 fold change” value rises from -0.0814 to 0.131.

RRIRPRPPRLPRPRPRPWMEPRP and RRIRKRPPRLPRPRPRPLACPRP are within 0.2 log units of each other in “shrunken log2 fold change” value: -0.0134 for the first, -0.0149 for the second.

Compared with RRIRMRPPRLPRPRPRPRGHPRP, RRIRSRPPRLPRPRPRPDPIPRP is lower in “shrunken log2 fold change” value: 1.33 for the first, -0.0376 for the second.

First: RRIRGRPPRLPRPRPRPKADPRP
Second: RRIRERPPRLPRPRPRPECLPRP
The “shrunken log2 fold change” value of the first is higher: 1.29 for the first, -0.137 for the second.

RRIRTRPPRLPRPRPRPAQDPRP and RRIRGRPPRLPRPRPRPEYFPRP are within 0.2 log units of each other in “shrunken log2 fold change” value: 0.111 for the first, 0.11 for the second.

Going from RRIRPRPPRLPRPRPRPFSQPRP to RRIRHRPPRLPRPRPRPWMIPRP, the “shrunken log2 fold change” value rises from -0.231 to -0.00164.

RRIRLRPPRLPRPRPRPQTNPRP and RRIRSRPPRLPRPRPRPFEFPRP are within 0.2 log units of each other in “shrunken log2 fold change” value: -0.497 for the first, -0.42 for the second.

First: RRIRWRPPRLPRPRPRPRWTPRP
Second: RRIRVRPPRLPRPRPRPFFKPRP
The “shrunken log2 fold change” value of the first is higher: 0.386 for the first, 0.0447 for the second.

RRIRRRPPRLPRPRPRPIVVPRP and RRIRNRPPRLPRPRPRPKRFPRP are within 0.2 log units of each other in “shrunken log2 fold change” value: 0.115 for the first, 0.0343 for the second.

RRIRIRPPRLPRPRPRPATWPRP and RRIRERPPRLPRPRPRPMICPRP are within 0.2 log units of each other in “shrunken log2 fold change” value: -0.273 for the first, -0.115 for the second.

Going from RRIRKRPPRLPRPRPRPEASPRP to RRIRHRPPRLPRPRPRPWYHPRP, the “shrunken log2 fold change” value falls from 0.497 to -1.53.

Compared with RRIRGRPPRLPRPRPRPMDLPRP, RRIRNRPPRLPRPRPRPTCTPRP is lower in “shrunken log2 fold change” value: 0.241 for the first, -0.0629 for the second.

RRIRSRPPRLPRPRPRPELVPRP and RRIRARPPRLPRPRPRPWGHPRP are within 0.2 log units of each other in “shrunken log2 fold change” value: 0.111 for the first, 0.0337 for the second.

RRIRHRPPRLPRPRPRPQYCPRP and RRIRCRPPRLPRPRPRPQCEPRP are within 0.2 log units of each other in “shrunken log2 fold change” value: -0.00186 for the first, -0.128 for the second.

With RRIRCRPPRLPRPRPRPLDDPRP the “shrunken log2 fold change” value was -0.119.
